In the supplement of paper PMC9112550, “Optimization of the antimicrobial peptide Bac7 by deep mutational scanning” (BMC Biology, 2022):

Each sequence was assayed on Escherichia coli TOP10 (assay: shrunken log2 fold change of peptide-encoding DNA abundance (4.5 h post-induction vs induction); higher = less antimicrobial activity (less host growth inhibition)). Conditions: time post-induction: 4.5 h; library: site-saturation at positions 5, 18, 19, 20.
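Note: peptides expressed intracellularly from a pBAD plasmid library in pooled LB shake-flask culture, induced with 0.3% L-arabinose, DNA abundance read by NGS, three biological replicates, DESeq2 with apeglm shrinkage.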

For RRIRQRPPRLPRPRPRPIAEPRP, which “shrunken log2 fold change” value is on record?
Its value is -0.103.

With RRIRQRPPRLPRPRPRPVAKPRP as the sequence, how does the “shrunken log2 fold change” value read?
Its value is 0.2.

Which “shrunken log2 fold change” value does the source give for RRIRRRPPRLPRPRPRPCQLPRP here?
Its value is -0.231.

With RRIRSRPPRLPRPRPRPMFFPRP as the sequence, how does the “shrunken log2 fold change” value read?
Its value is -0.274.

For RRIRKRPPRLPRPRPRPIAFPRP, which “shrunken log2 fold change” value is on record?
The value was -0.0784.

Which “shrunken log2 fold change” value does the source give for RRIRHRPPRLPRPRPRPPYIPRP here?
Its value is -0.175.

For RRIRYRPPRLPRPRPRPQFCPRP, which “shrunken log2 fold change” value is on record?
The value was -0.0677.

How did the “shrunken log2 fold change” value turn out when RRIRSRPPRLPRPRPRPLLDPRP was run?
The value was 0.218.

RRIRSRPPRLPRPRPRPPHFPRP was tested. Which “shrunken log2 fold change” value did it give?
Its value is 0.503.

Which “shrunken log2 fold change” value does the source give for RRIRCRPPRLPRPRPRPCFQPRP here?
The value was -0.212.

Which “shrunken log2 fold change” value does the source give for RRIRQRPPRLPRPRPRPQSFPRP here?
Its value is -0.0179.

Which “shrunken log2 fold change” value does the source give for RRIRMRPPRLPRPRPRPRGCPRP here?
Its value is 1.08.

With RRIRCRPPRLPRPRPRPQHLPRP as the sequence, how does the “shrunken log2 fold change” value read?
Its value is -0.0397.

How did the “shrunken log2 fold change” value turn out when RRIRYRPPRLPRPRPRPPSTPRP was run?
Its value is -0.294.

With RRIRIRPPRLPRPRPRPCELPRP as the sequence, how does the “shrunken log2 fold change” value read?
The value was -0.254.

How did the “shrunken log2 fold change” value turn out when RRIRFRPPRLPRPRPRPCEFPRP was run?
Its value is 0.0635.

How did the “shrunken log2 fold change” value turn out when RRIRVRPPRLPRPRPRPVMKPRP was run?
The value was -0.127.

With RRIRGRPPRLPRPRPRPKHHPRP as the sequence, how does the “shrunken log2 fold change” value read?
The value was 0.309.

Which “shrunken log2 fold change” value does the source give for RRIRTRPPRLPRPRPRPQGHPRP here?
The value was -0.122.

With RRIRHRPPRLPRPRPRPYDIPRP as the sequence, how does the “shrunken log2 fold change” value read?
The value was -0.387.

Which “shrunken log2 fold change” value does the source give for RRIRWRPPRLPRPRPRPLFAPRP here?
The value was 0.579.

With RRIRRRPPRLPRPRPRPGTYPRP as the sequence, how does the “shrunken log2 fold change” value read?
Its value is -0.0906.

For RRIRQRPPRLPRPRPRPWETPRP, which “shrunken log2 fold change” value is on record?
Its value is -0.00136.

Which “shrunken log2 fold change” value does the source give for RRIRDRPPRLPRPRPRPLHDPRP here?
The value was -0.0658.

How did the “shrunken log2 fold change” value turn out when RRIRQRPPRLPRPRPRPEVWPRP was run?
Its value is 0.552.

For RRIRYRPPRLPRPRPRPGHCPRP, which “shrunken log2 fold change” value is on record?
The value was -0.0945.

For RRIRTRPPRLPRPRPRPMWQPRP, which “shrunken log2 fold change” value is on record?
Its value is 0.0135.

RRIRMRPPRLPRPRPRPANEPRP was tested. Which “shrunken log2 fold change” value did it give?
The value was 0.182.

With RRIRRRPPRLPRPRPRPLAHPRP as the sequence, how does the “shrunken log2 fold change” value read?
The value was 0.223.

For RRIRYRPPRLPRPRPRPQEKPRP, which “shrunken log2 fold change” value is on record?
The value was -0.0798.

Which “shrunken log2 fold change” value does the source give for RRIRCRPPRLPRPRPRPYSHPRP here?
The value was -0.595.

How did the “shrunken log2 fold change” value turn out when RRIRKRPPRLPRPRPRPDPVPRP was run?
The value was -0.146.

With RRIRNRPPRLPRPRPRPKTAPRP as the sequence, how does the “shrunken log2 fold change” value read?
The value was -0.232.

With RRIRKRPPRLPRPRPRPHRQPRP as the sequence, how does the “shrunken log2 fold change” value read?
The value was 0.277.

With RRIRSRPPRLPRPRPRPALEPRP as the sequence, how does the “shrunken log2 fold change” value read?
The value was 0.407.

RRIRYRPPRLPRPRPRPRITPRP was tested. Which “shrunken log2 fold change” value did it give?
The value was -0.382.

RRIRFRPPRLPRPRPRPELIPRP was tested. Which “shrunken log2 fold change” value did it give?
Its value is -0.308.

With RRIRTRPPRLPRPRPRPASDPRP as the sequence, how does the “shrunken log2 fold change” value read?
Its value is -0.141.

Which “shrunken log2 fold change” value does the source give for RRIRGRPPRLPRPRPRPLTMPRP here?
The value was 0.763.

For RRIRGRPPRLPRPRPRPANMPRP, which “shrunken log2 fold change” value is on record?
Its value is -0.139.

RRIRYRPPRLPRPRPRPHMKPRP was tested. Which “shrunken log2 fold change” value did it give?
The value was -0.489.

How did the “shrunken log2 fold change” value turn out when RRIRSRPPRLPRPRPRPGWVPRP was run?
The value was 0.549.

How did the “shrunken log2 fold change” value turn out when RRIRIRPPRLPRPRPRPDNQPRP was run?
Its value is -1.03.

How did the “shrunken log2 fold change” value turn out when RRIRMRPPRLPRPRPRPSKVPRP was run?
The value was 0.167.

Which “shrunken log2 fold change” value does the source give for RRIRCRPPRLPRPRPRPNQPPRP here?
The value was -0.0425.

With RRIRYRPPRLPRPRPRPTRMPRP as the sequence, how does the “shrunken log2 fold change” value read?
The value was 0.09.

Which “shrunken log2 fold change” value does the source give for RRIRQRPPRLPRPRPRPSFPPRP here?
The value was -0.125.

RRIRCRPPRLPRPRPRPLYDPRP was tested. Which “shrunken log2 fold change” value did it give?
Its value is -0.312.

With RRIRLRPPRLPRPRPRPYHLPRP as the sequence, how does the “shrunken log2 fold change” value read?
The value was -0.213.

How did the “shrunken log2 fold change” value turn out when RRIRERPPRLPRPRPRPHNKPRP was run?
The value was -0.787.

RRIRYRPPRLPRPRPRPKRGPRP was tested. Which “shrunken log2 fold change” value did it give?
The value was 0.00607.

For RRIRLRPPRLPRPRPRPDMNPRP, which “shrunken log2 fold change” value is on record?
Its value is -0.155.

Which “shrunken log2 fold change” value does the source give for RRIRYRPPRLPRPRPRPMLVPRP here?
Its value is -0.176.

RRIRTRPPRLPRPRPRPIVKPRP was tested. Which “shrunken log2 fold change” value did it give?
The value was -0.144.

How did the “shrunken log2 fold change” value turn out when RRIRQRPPRLPRPRPRPHGYPRP was run?
Its value is -0.138.

RRIRARPPRLPRPRPRPLNFPRP was tested. Which “shrunken log2 fold change” value did it give?
Its value is -0.249.

For RRIRERPPRLPRPRPRPRGHPRP, which “shrunken log2 fold change” value is on record?
The value was 0.0666.

For RRIRWRPPRLPRPRPRPGAHPRP, which “shrunken log2 fold change” value is on record?
Its value is 0.32.

How did the “shrunken log2 fold change” value turn out when RRIRQRPPRLPRPRPRPLEHPRP was run?
Its value is -0.109.

RRIRDRPPRLPRPRPRPPTIPRP was tested. Which “shrunken log2 fold change” value did it give?
The value was 0.0394.

RRIRLRPPRLPRPRPRPGTWPRP was tested. Which “shrunken log2 fold change” value did it give?
The value was 0.0714.

For RRIRTRPPRLPRPRPRPSFVPRP, which “shrunken log2 fold change” value is on record?
The value was -0.488.

How did the “shrunken log2 fold change” value turn out when RRIRKRPPRLPRPRPRPFHTPRP was run?
Its value is -0.0289.

How did the “shrunken log2 fold change” value turn out when RRIRRRPPRLPRPRPRPRLNPRP was run?
Its value is 0.522.

Which “shrunken log2 fold change” value does the source give for RRIRDRPPRLPRPRPRPPESPRP here?
Its value is 0.822.

With RRIRARPPRLPRPRPRPDGKPRP as the sequence, how does the “shrunken log2 fold change” value read?
Its value is 0.154.

RRIRKRPPRLPRPRPRPYLIPRP was tested. Which “shrunken log2 fold change” value did it give?
Its value is -1.9.

Which “shrunken log2 fold change” value does the source give for RRIRFRPPRLPRPRPRPCLHPRP here?
The value was -0.542.

With RRIRLRPPRLPRPRPRPCSYPRP as the sequence, how does the “shrunken log2 fold change” value read?
The value was -0.259.

For RRIRKRPPRLPRPRPRPSRCPRP, which “shrunken log2 fold change” value is on record?
Its value is 0.392.

RRIRSRPPRLPRPRPRPRTWPRP was tested. Which “shrunken log2 fold change” value did it give?
The value was 0.0747.

Which “shrunken log2 fold change” value does the source give for RRIRQRPPRLPRPRPRPVERPRP here?
Its value is -0.0839.

Which “shrunken log2 fold change” value does the source give for RRIRDRPPRLPRPRPRPEIVPRP here?
The value was 0.048.

With RRIRHRPPRLPRPRPRPENAPRP as the sequence, how does the “shrunken log2 fold change” value read?
Its value is 0.14.

Which “shrunken log2 fold change” value does the source give for RRIRWRPPRLPRPRPRPNPIPRP here?
Its value is -0.149.
